In PMC9145999:

Target: main protease from canine coronavirus (CCoV M^pro) (canine coronavirus)
Experiment: crystal structure; CCoV M^pro incubated with two-fold molar excess of GC376 at 4 °C for 1 h; crystals from 0.2 M sodium citrate, 0.1 M Bis Tris propane 7.0, 25% w/v PEG 3350 at 20 °C; 2.75 Å, space group C2, eight protomers in the asymmetric unit

## main protease from canine coronavirus (CCoV M^pro) (enzyme)
  stoichiometry N: 2
